What all share (experiment): EMSA
Details in all cases: EMSA: 200 ng protein, 5 ng 3'-biotin-labeled promoter DNA, 6% DNA retardation gel, 100 V at 4 C; binding buffer, salt and pH not stated

The target of series [1] is T1, MqsA-F (Escherichia coli) (UniProt Q46864).
T1 sequence: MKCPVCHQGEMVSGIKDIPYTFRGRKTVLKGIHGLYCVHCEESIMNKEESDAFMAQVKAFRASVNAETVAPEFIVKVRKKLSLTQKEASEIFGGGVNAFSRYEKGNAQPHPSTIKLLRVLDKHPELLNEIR

The target in series [2] is MqsR;MqsA-F (Escherichia coli;Escherichia coli) (UniProt Q46865+Q46864).
MqsR;MqsA-F (Escherichia coli;Escherichia coli), sequence (Q46865 whole entry, one chain of several): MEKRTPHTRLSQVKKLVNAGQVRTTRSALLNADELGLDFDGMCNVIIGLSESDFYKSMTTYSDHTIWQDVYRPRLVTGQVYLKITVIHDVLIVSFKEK
Series [3] deals with T2, MqsA-N (Escherichia coli) (UniProt Q46864).
T2 sequence: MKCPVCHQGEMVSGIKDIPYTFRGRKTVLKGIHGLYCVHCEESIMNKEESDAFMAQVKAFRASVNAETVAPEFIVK

Series [4] concerns the target T3, MqsA-C (Escherichia coli) (UniProt Q46864).
T3 sequence: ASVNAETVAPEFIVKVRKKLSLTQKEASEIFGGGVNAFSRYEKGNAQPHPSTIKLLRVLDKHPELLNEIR

Series [5] addresses MqsR;MqsA-N (Escherichia coli;Escherichia coli) (UniProt Q46865+Q46864).

MqsR;MqsA-N (Escherichia coli;Escherichia coli), sequence (Q46865 whole entry, one chain of several): as the sequence (Q46865 whole entry, one chain of several) above

With “CAGTCATCCGGTATAGTTCTTCATAATCTCTGCAAAATCATCGTGTTGTAATATTCTCTCATCACTCTCCATCAAATTTTCTTTTTTTCTCCATAATTGGCGCAAAAGTGTTTTTTACACTTTCATTGTTTTACCGTTGCTCTGATTAATTGACGCTAAAGTCAGTAAAGTTAATCTCGTCAACACGGCACGCTACTTAAGAAAGCCGTAATAAATAACTGAAAGGAAGGATATAGAATATGCGTAAATTAACTGCACTGTTTGTTGCC (double strand) [Pspy]”, the binding result in series [1] was “binds”.
Still for that read-out and setting: the result for “CCTGCAGAGTCAAACTGACATGTTTCATTTTTCCCGTTCCAGGCATTTTAATTCCTTCGCGTGTTTTCTGTCCAACCCTGCCTGCATGGCAGAAGGAATTCACCTGGTGTATTAAAGTGAATAATCATAAACCACTCACCTTTGTTGTTATTAGCAGCAGAACAATGATGTGGTTAGTTAATTAAAGCTGAAAATAAGCTTTTTGCCTGGATTTTTATGGCGGCTTACGCCGCCGTTGAAACTTTAATCATCACCCGCCACGCGGATCACCACTTTGC (double strand) [PmcbR]” reads “binds”.
Regarding “CGGGTTAGTGCTAGTATGAAAAAGTGAGTCCTGTCCCGCTTCCTTCCTAATTGTAATTTTTCGTAATAATGCGATGAAAACCTGCAAAGAGTGGCTTATAGTTAAGCTAACAAACGAGAGGGCAAGTCCAGGTCAGTAAGTTTTTTCCATCCCGAAAGGTGTCCGTTAGTTCAACCGCTAAGAAGGGGACGCGTTATGGATGAATACTCACCCAAAAGACATGATATCGCACAGCTTAAGT (double strand) [PtomB]”, the binding entry in series [1] and in series [2] was “no binding” throughout.
Regarding “CGTGTATGTGGTGTGCGTTTTTCCATAACCCCCGCCTCCCTGTTACTTTAGTTATAACCTAAAAGGTTAATTACAGCAATGAAAAAGCACCTAAAAGGTTAGTTAGATGTACGGAGATAGTGACCACACAAAACGTATTCTTTAAGGAAAGTGATTGACCATATAAGAAAGTGGCGCATTAGTAGCGCCAGTTTGAAGCAGGAATTTATAAGGGAAGCTGGAGTCAGGCATCAC (double strand) [PmqsR]”, the binding result in series [1] is “binds”; in series [2], “binds”; in series [3], “no binding”; in series [4], “binds”; in series [5], “no binding”.

The values are drawn from PMC2791442.
